From paper PMC10003451 (2023) come the findings set out here.

This experiment addresses recombinant protein phosphatase-1 catalytic subunit alpha (PP1cα) (UniProt P62136 1-330). The experiment can be described thus: ITC.

Where no end group is shown, it is not given here. [ ]: non-standard residue; d: D form. pT = C[C@@H](OP(=O)(O)O)[C@H](N)C(=O)O

Sequence of recombinant protein phosphatase-1 catalytic subunit alpha (PP1cα) (P62136 whole entry): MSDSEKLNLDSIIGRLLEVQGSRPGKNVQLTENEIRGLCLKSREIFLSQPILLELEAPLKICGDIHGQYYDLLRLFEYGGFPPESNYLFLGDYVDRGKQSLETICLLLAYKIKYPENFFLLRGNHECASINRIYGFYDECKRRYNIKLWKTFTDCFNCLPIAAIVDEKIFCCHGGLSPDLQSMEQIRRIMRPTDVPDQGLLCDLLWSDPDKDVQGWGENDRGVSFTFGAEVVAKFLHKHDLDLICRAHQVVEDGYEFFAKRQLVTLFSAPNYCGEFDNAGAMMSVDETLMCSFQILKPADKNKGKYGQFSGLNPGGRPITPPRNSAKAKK

B1: P-Thr696-MYPT1^690−701 (phosphorylated peptide of the inhibitory region of myosin phosphatase target subunit-1) (peptide)
peptide: RQSRRS[pT]QGVTL
On to B1, for which the Ka turned out to be 2.57e+06 M⁻¹.
